The values that follow come from US9617572B2, “Methods of producing 7-carbon chemicals via aromatic compounds” (INVISTA North America S.á r.l., priority 2012, dated 2017).

Common to all, as to assay type: biochemical
Assay [1] is described as follows: Carboxylate reductase activity assay (N7-acetyl-7-aminoheptanoate to N7-acetyl-7-aminoheptanal). The note with it: purified enzyme enhanced by sfp gene product, 2 mM N7-acetyl-7-aminoheptanoate, 1 mM ATP, 1 mM NADPH, pH 7.5, room temperature, 20 min, against empty vector control. As to the method:
The activity of each of the N-terminal His-tagged carboxylate reductases of SEQ ID NOs: 3, 6, and 7 (see Example 4, and FIGS. 7B, 7E, and 7F) for converting N7-acetyl-7-aminoheptanoate to N7-acetyl-7-aminoheptanal was assayed in triplicate in a buffer composed of a final concentration of 50 mM HEPES buffer (pH=7.5), 2 mM N7-acetyl-7-aminoheptanoate, 10 mM MgCl2, 1 mM ATP, and 1 mM NADPH. The assays were initiated by adding purified carboxylate reductase and phosphopantetheine transferase or the empty vector control to the assay buffer containing the N7-acetyl-7-aminoheptanoate then incubated at room temperature for 20 min. The consumption of NADPH was monitored by absorbance at 340 nm.

Assay [2] can be described thus: Thioesterase enzyme activity assay using pimeloyl-CoA as substrate, forming pimelate. The note with it: 667 μM pimeloyl-CoA, 0.8 μM tesB gene product, pH 7.4, 37° C., 20 min, compared to empty vector control. As to the method: A sequence encoding an N-terminal His tag was added to the tesB gene from Escherichia coli that encodes a thioesterase (SEQ ID NO 1, see FIG. 7A), such that an N-terminal HIS tagged thioesterase could be produced. The modified tesB gene was cloned into a pET15b expression vector under control of the T7 promoter. The expression vector was transformed into a BL21[DE3] E. coli host. The resulting recombinant E. coli strain was cultivated at 37° C. in a 500 mL shake flask culture containing 50 mL Luria Broth (LB) media and antibiotic selection pressure, with shaking at 230 rpm. The culture was induced overnight at 17° C. using 0.5 mM IPTG.
The pellet from the induced shake flask culture was harvested via centrifugation. The pellet was resuspended and lysed in Y-per™ solution (ThermoScientific, Rockford, Ill.). The cell debris was separated from the supernatant via centrifugation. […]
The enzyme activity assay was performed in triplicate in a buffer composed of 50 mM phosphate buffer (pH=7.4), 0.1 mM Ellman's reagent, and 667 μM of pimeloyl-CoA (as substrate). […] The release of Coenzyme A was monitored by absorbance at 412 nm. The absorbance associated with the substrate only control, which contained boiled enzyme, was subtracted from the active enzyme assay absorbance and compared to the empty vector control.

Assay [3] is described as follows: Carboxylate reductase activity assay (pimelate to pimelate semialdehyde). As to conditions: purified enzyme enhanced by sfp gene product, 2 mM pimelate, 1 mM ATP, 1 mM NADPH, pH 7.5, room temperature, 20 min, against empty vector control. As for the experimental part: A sequence encoding a HIS-tag was added to the genes from Segniliparus rugosus and Segniliparus rotundus that encode the carboxylate reductases of SEQ ID NOs: 4 and 7, respectively (see FIGS. 7C and 7F), such that N-terminal HIS tagged carboxylate reductases could be produced. Each of the modified genes was cloned into a pET Duet expression vector along with a sfp gene encoding a HIS-tagged phosphopantetheine transferase from Bacillus subtilis, both under the T7 promoter. Each expression vector was transformed into a BL21[DE3] E. coli host and the resulting recombinant E. coli strains were cultivated at 37° C. in a 250 mL shake flask culture containing 50 mL LB media and antibiotic selection pressure, with shaking at 230 rpm. Each culture was induced overnight at 37° C. using an auto-induction media.
The pellet from each induced shake flask culture was harvested via centrifugation. Each pellet was resuspended and lysed via sonication, and the cell debris was separated from the supernatant via centrifugation. […]
Enzyme activity assays (i.e., from pimelate to pimelate semialdehyde) were performed in triplicate in a buffer composed of a final concentration of 50 mM HEPES buffer (pH=7.5), 2 mM pimelate, 10 mM MgCl2, 1 mM ATP and 1 mM NADPH. […] The consumption of NADPH was monitored by absorbance at 340 nm.

B1: SEQ ID NO 3: Mycobacterium smegmatis carboxylate reductase, Genbank Accession No. ABK71854.1 (protein, listed as Mycobacterium smegmatis)
chain: MTSDVHDATDGVTETALDDEQSTRRIAELYATDPEFAAAAPLPAVVDAAHKPGLRLAEILQTLFTGYGDRPALGYRARELATDEGGRTVTRLLPRFDTLTYAQVWSRVQAVAAALRHNFAQPIYPGDAVATIGFASPDYLTLDLVCAYLGLVSVPLQHNAPVSRLAPILAEVEPRILTVSAEYLDLAVESVRDVNSVSQLVVFDHHPEVDDHRDALARAREQLAGKGIAVTTLDAIADEGAGLPAEPIYTADHDQRLAMILYTSGSTGAPKGAMYTEAMVARLWTMSFITGDPTPVINVNFMPLNHLGGRIPISTAVQNGGTSYFVPESDMSTLFEDLALVRPTELGLVPRVADMLYQHHLATVDRLVTQGADELTAEKQAGAELREQVLGGRVITGFVSTAPLAAEMRAFLDITLGAHIVDGYGLTETGAVTRDGVIVRPPVIDYKLIDVPELGYFSTDKPYPRGELLVRSQTLTPGYYKRPEVTASVFDRDGYYHTGDVMAETAPDHLVYVDRRNNVLKLAQGEFVAVANLEAVFSGAALVRQIFVYGNSERSFLLAVVVPTPEALEQYDPAALKAALADSLQRTARDAELQSYEVPADFIVETEPFSAANGLLSGVGKLLRPNLKDRYGQRLEQMYADIAATQANQLRELRRAAATQPVIDTLTQAAATILGTGSEVASDAHFTDLGGDSLSALTLSNLLSDFFGFEVPVGTIVNPATNLAQLAQHIEAQRTAGDRRPSFTTVHGADATEIRASELTLDKFIDAETLRAAPGLPKVTTEPRTVLLSGANGWLGRFLTLQWLERLAPVGGTLITIVRGRDDAAARARLTQAYDTDPELSRRFAELADRHLRVVAGDIGDPNLGLTPEIWHRLAAEVDLVVHPAALVNHVLPYRQLFGPNVVGTAEVIKLALTERIKPVTYLSTVSVAMGIPDFEEDGDIRTVSPVRPLDGGYANGYGNSKWAGEVLLREAHDLCGLPVATFRSDMILAHPRYRGQVNVPDMFTRLLLSLLITGVAPRSFYIGDGERPRAHYPGLTVDFVAEAVTTLGAQQREGYVSYDVMNPHDDGISLDVFVDWLIRAGHPIDRVDDYDDWVRRFETALTALPEKRRAQTVLPLLHAFRAPQAPLRGAPEPTEVFHAAVRTAKVGPGDIPHLDEALIDKYIRDLREFGLI
In the case of B1, in assay [1], the “acceptance of N7-acetyl-7-aminoheptanoate as substrate (consumption of NADPH, absorbance at 340 nm)” value is recorded as “accepted N7-acetyl-7-aminoheptanoate as substrate”.

B2: tesB: Escherichia coli thioesterase encoded by tesB, GenBank Accession No. AAA24665.1 (protein, listed as Escherichia coli)
chain: MSQALKNLLTLLNLEKIEEGLFRGQSEDLGLRQVFGGQVVGQALYAAKETVPEERLVHSFHSYFLRPGDSKKPIIYDVETLRDGNSFSARRVAAIQNGKPIFYMTASFQAPEAGFEHQKTMPSAPAPDGLPSETQIAQSLAHLLPPVLKDKFICDRPLEVRPVEFHNPLKGHVAEPHRQVWIRANGSVPDDLRVHQYLLGYASDLNFLPVALQPHGIGFLEPGIQIATIDHSMWFHRPFNLNEWLLYSVESTSASSARGFVRGEFYTQDGVLVASTVQEGVMRNHN
B2: in assay [2], the “acceptance of pimeloyl-CoA as substrate (release of Coenzyme A, absorbance at 412 nm)” value was “acceped pimeloyl-CoA as substrate”.

B3: SEQ ID NO 6: Mycobacterium massiliense carboxylate reductase, Genbank Accession No. EIV11143.1 (protein)
chain: MTNETNPQQEQLSRRIESLRESDPQFRAAQPDPAVAEQVLRPGLHLSEAIAALMTGYAERPALGERARELVIDQDGRTTLRLLPRFDTTTYGELWSRTTSVAAAWHHDATHPVKAGDLVATLGFTSIDYTVLDLAIMILGGVAVPLQTSAPASQWTTILAEAEPNTLAVSIELIGAAMESVRATPSIKQVVVFDYTPEVDDQREAFEAASTQLAGTGIALETLDAVIARGAALPAAPLYAPSAGDDPLALLIYTSGSTGAPKGAMHSENIVRRWWIREDVMAGTENLPMIGLNFMPMSHIMGRGTLTSTLSTGGTGYFAASSDMSTLFEDMELIRPTALALVPRVCDMVFQRFQTEVDRRLASGDTASAEAVAAEVKADIRDNLFGGRVSAVMVGSAPLSEELGEFIESCFELNLTDGYGSTEAGMVFRDGIVQRPPVIDYKLVDVPELGYFSTDKPHPRGELLLKTDGMFLGYYKRPEVTASVFDADGFYMTGDIVAELAHDNIEIIDRRNNVLKLSQGEFVAVATLEAEYANSPVVHQIYVYGSSERSYLLAVVVPTPEAVAAAKGDAAALKTTIADSLQDIAKEIQLQSYEVPRDFIIEPQPFTQGNGLLTGIAKLARPNLKAHYGPRLEQMYAEIAEQQAAELRALHGVDPDKPALETVLKAAQALLGVSSAELAADAHFTDLGGDSLSALSFSDLLRDIFAVEVPVGVIVSAANDLGGVAKFVDEQRHSGGTRPTAETVHGAGHTEIRAADLTLDKFIDEATLHAAPSLPKAAGIPHTVLLTGSNGYLGHYLALEWLERLDKTDGKLIVIVRGKNAEAAYGRLEEAFDTGDTELLAHFRSLADKHLEVLAGDIGDPNLGLDADTWQRLADTVDVIVHPAALVNHVLPYNQLFGPNVVGTAEIIKLAITTKIKPVTYLSTVAVAAYVDPTTFDEESDIRLISAVRPIDDGYANGYGNAKWAGEVLLREAHDLCGLPVAVFRSDMILAHSRYTGQLNVPDQFTRLILSLIATGIAPGSFYQAQTTGERPLAHYDGLPGDFTAEAITTLGTQVPEGSEGFVTYDCVNPHADGISLDNFVDWLIEAGYPIARIDNYTEWFTRFDTAIRGLSEKQKQHSLLPLLHAFEQPSAAENHGVVPAKRFQHAVQAAGIGPVGQDGTTDIPHLSRRLIVKYAKDLEQLGLL
modifications: Mycobacterium massiliense
For the molecule B3, the “acceptance of N7-acetyl-7-aminoheptanoate as substrate (consumption of NADPH, absorbance at 340 nm)” value in assay [1] is “accepted N7-acetyl-7-aminoheptanoate as substrate”.

B4: SEQ ID NO 4: Segniliparus rugosus carboxylate reductase, Genbank Accession No. EFV11917.1 (protein, listed as Segniliparus rugosus)
chain: MGDGEERAKRFFQRIGELSATDPQFAAAAPDPAVVEAVSDPSLSFTRYLDTLMRGYAERPALAHRVGAGYETISYGELWARVGAIAAAWQADGLAPGDFVATVGFTSPDYVAVDLAAARSGLVSVPLQAGASLAQLVGILEETEPKVLAASASSLEGAVACALAAPSVQRLVVFDLRGPDASESAADERRGALADAEEQLARAGRAVVVETLADLAARGEALPEAPLFEPAEGEDPLALLIYTSGSTGAPKGAMYSQRLVSQLWGRTPVVPGMPNISLHYMPLSHSYGRAVLAGALSAGGTAHFTANSDLSTLFEDIALARPTFLALVPRVCEMLFQESQRGQDVAELRERVLGGRLLVAVCGSAPLSPEMRAFMEEVLGFPLLDGYGSTEALGVMRNGIIQRPPVIDYKLVDVPELGYRTTDKPYPRGELCIRSTSLISGYYKRPEITAEVFDAQGYYKTGDVMAEIAPDHLVYVDRSKNVLKLSQGEFVAVAKLEAAYGTSPYVKQIFVYGNSERSFLLAVVVPNAEVLGARDQEEAKPLIAASLQKIAKEAGLQSYEVPRDFLIETEPFTTQNGLLSEVGKLLRPKLKARYGEALEARYDEIAHGQADELRALRDGAGQRPVVETVVRAAVAISGSEGAEVGPEANFADLGGDSLSALSLANLLHDVFEVEVPVRIIIGPTASLAGIAKHIEAERAGASAPTAASVHGAGATRIRASELTLEKFLPEDLLAAAKGLPAADQVRTVLLTGANGWLGRFLALEQLERLARSGQDGGKLICLVRGKDAAAARRRIEETLGTDPALAARFAELAEGRLEVVPGDVGEPKFGLDDAAWDRLAEEVDVIVHPAALVNHVLPYHQLFGPNVVGTAEIIRLAITAKRKPVTYLSTVAVAAGVEPSSFEEDGDIRAVVPERPLGDGYANGYGNSKWAGEVLLREAHELVGLPVAVFRSDMILAHTRYTGQLNVPDQFTRLVLSLLATGIAPKSFYQQGAAGERQRAHYDGIPVDFTAEAITTLGAEPSWFDGGAGFRSFDVFNPHHDGVGLDEFVDWLIEAGHPISRIDDHKEWFARFETAVRGLPEAQRQHSLLPLLRAYSFPHPPVDGSVYPTGKFQGAVKAAQVGSDHDVPHLGKALIVKYADDLKALGLL
On to B4, for which the “acceptance of pimelate as substrate (consumption of NADPH, absorbance at 340 nm)” value in assay [3] is on record as “accepted pimelate as substrate”.
